Source: patent US20140295012A1, “LATENT HUMAN IMMUNODEFICIENCY VIRUS REACTIVATION” (priority 2011, published 2014)
Where “and” joins values, the source holds several entries; their conditions need not be identical. Identical values can stand only once. *1 amine or outer side, *2 acyl side, *3 side chain or, on linkers, in order; H or OH if unused. Where a SMILES comes first, the peptide text is derived from it. Bridges are numbered along the chain shown (N, C = ends). Roman numbers before positions name the chains, in order. [ ]: non-standard residue; d: D form. Actinocin(9to1) = Cc1c2oc3c(C)ccc(C(=O)[*:1])c3nc-2c(C(=O)[*:2])c(N)c1=O; NMeV = CN[C@H](C(=O)O)C(C)C; Sar = CNCC(=O)O

Assays:
Type in all cases: cell-based
[1] = tested on: latently HIV-1 infected CA5 T cells
Protocol: Infection levels in the cell cultures were monitored by flow cytometric analysis of EGFP expression. Flow cytometric analysis was performed on a GUAVA EasyCyte (Millipore; Billerica, Mass.), or a LSRII (Becton & Dickinson; Franklin Lakes, N.J.).
Bacterial growth. Bacteria from various sources were isolated on TSA II agar plates containing 5% sheep blood. Bacterial isolates were then grown in RPMI 1640 medium supplemented with 10% FBS. After two days of incubation at 37° C. bacteria were pelleted and resuspended in RPMI medium to an optical density (OD600) of 8, aliquoted and frozen at −80° C. Unless otherwise indicated, Massilia timonae was grown in RPMI 1640 medium supplemented with 10% FBS. Typically, medium was inoculated with Massilia timonae from frozen stocks to an OD600 of 0.01. After 48 hours at 37° C., the culture was centrifuged at 3200 g to separate bacteria from the culture medium. Bacteria were resuspended in fresh medium to an OD600 of 8 and frozen to be used as references and stock cultures. The supernatant was then centrifuged at 10,000 g for 20 minutes and sterilized by passage through a 0.2 μm PVDF filter with low protein binding ability. HRF activity was determined by its ability to reactivate latent HIV-1 infection in CA5 cells. Only supernatants of which 6 μl reactivated infection in at least 60% of CA5 cells were used to study HRF properties.
Flow cytometry. Infection levels in the cell cultures were monitored by flow cytometric (FCM) analysis of GFP expression. FCM analysis was performed on a GUAVA EasyCyte (GUAVA Technologies, Inc.; Millipore; Billerica, Mass.) and a BD FACSCalibur or a LSRII (Becton & Dickinson; Franklin Lakes, N.J.). Cell sorting experiments were performed using a FACSAria™ Flow Cytometer (Becton&Dickinson). Data analysis was performed using either CellQuest (Becton&Dickinson) or GUAVA Express (GUAVA Technologies, Inc.).
To identify the optimal concentration of dactinomycin, CA5 T cells were pretreated with increasing concentrations of dactinomycin (0.0001 and 1 μg/ml), and then left untreated or stimulated with a sub-optimal concentration of HRF or TNF-α. Representative results for stimulation with HRF are depicted in FIG. 3. The chosen HRF concentration has only minimal HIV-1 reactivating effect by itself (15% reactivation over background). Twenty four hours after activator addition, levels of HIV-1 reactivation were determined as the percentage of GFP-positive cells using flow cytometric analysis, which allowed for the simultaneous determination of cell viability. […] Optimal pretreatment time was 18 hours. Maximum reactivation effects were seen 48 hours after stimulation.

[2] = tested on: latently HIV-2 infected J2574 reporter T cells; test: Priming of latent HIV-2 infection in J2574 reporter T cells infected with HIV-2 7312A
Protocol: J2574 reporter T cells were infected with HIV-2 7312A and a latently infected cell population was established (>90% latently infected cells). […] Reactivation levels were determined 24 hours post HRF activation by quantifying the level of GFP-positive cells using flow cytometric analysis.
J2574 reporter T cells were generated by retrovirally transducing Jurkat T cells with a HIV-1 reporter construct (p2574) in which the HIV-1 LTR controls the expression of GFP. The HIV-1 LTR and the GFP gene are separated by a 2,500 base pair (bp) spacer element. Lentiviral particles were produced by transfecting 293T cells with p2574 and supplying gag-pol-rev-tat in trans. VSV-G was used as viral envelope protein. Following lentiviral transduction of Jurkat cells, all cells that spontaneously expressed GFP were removed by cell sorting. The GFP-negative population was then activated with PMA to identify all cells that would harbor an inducible LTR-GFP-LTR integration event. Cells that turned GFP-positive following stimulation were again selected by cell sorting. GFP expression in this population ceased after a few days leaving a population of GFP-negative reporter cells. The amount of founder cells for this population is calculated to represent >50,000 individual integration events.
To determine the ability of dactinomycin to prime a latent HIV-2 infection, a latently HIV-2 infected population of GFP reporter T cells was tested. Briefly, to create the latent HIV-2 infected population, J2574 reporter cells were infected with HIV-2 7312A and a population of latently HIV-2 infected cells was generated by removing the actively infected, GFP-positive cells using a fluorescence activated cell sorter.

[3] = tested on: latently HIV-1 infected CA5 T cells; remark: listed apart in the source
NF-κB p65 = NF-κB p65 activity in nuclear extracts of Jurkat cells (TransAM NF-κB family ELISA)
Protocol: (§1) FIGS. 7A-7D are graphs showing the kinetics of HRF-mediated induction of NF-κB activity. Jurkat or latently HIV-1 infected CA5 T cells were stimulated with optimal concentrations of PMA and HRF, and cells were harvested at the indicated time points. Nuclear extracts were generated and (FIGS. 7A and 7C) NF-κB p50 activity and (FIGS. 7B and 7D) NF-κB p65 activity were determined using the TransAM™ NF-κB family ELISA kit (Active Motif; Carlsbad, Calif.).
(§2) Cells were grown in RPMI medium supplemented with 10% FBS and 1% PSG to approximately 5×10^5 cells per milliliter. Cells were centrifuged and resuspended in fresh pre-warmed medium. PMA, HRF and/or JNKiV were added immediately at the indicated concentrations. The final cell density for the assay was 1×10^6 cells per milliliter. The culture flasks were kept in a humidified CO2 incubator at 37° C. For each time point, a 1 ml cell suspension was removed and immediately centrifuged at full speed in a tabletop centrifuge for 30 seconds. […] The protein concentration of the extracts was determined by using the BCA protein assay Kit (ThermoFisher). […] The absorbance at 595 nm was determined using a 96 well plate reader (Synergy HT, BIO-Tek; Winooski, Vt.).
(§3) NF-κB activity in nuclear extracts was quantified using the TransAM™ NF-κB family ELISA kit from Active Motif, Inc. (Carlsbad, Calif.) according to the manufacturer's instructions.

cell culture = test: Cytotoxicity in cell culture and therapeutic index
Excerpt: The HRFs provided herein show little to no cytotoxicity and have a therapeutic index greater than 300. A therapeutic index is a comparison of the amount of a therapeutic agent that causes a therapeutic effect to the amount that causes death. The therapeutic index is a ratio given by the lethal dose of a drug or agent for 50% of the population (LD50) divided by the minimum effective therapeutic dose for 50% of the population (ED50). A high therapeutic index is preferable.

NF-κB p50 = NF-κB p50 activity in nuclear extracts of Jurkat cells (TransAM NF-κB family ELISA)
Protocol: as §1, §2, §3

Row | Molecule | priming effect on HIV-1 reactivation by sub-optimal dose of HRF ([1]; CA5 cells pretreated with increasing concentrations) | concentration of optimal priming activity ([1]; pretreatment, then sub-optimal HRF or TNF-α, both T cell lines) | concentration range that efficiently primed latent HIV-2 infection for reactivation ([2]; 18 hours pretreatment, sub-optimal HRF) [ng/mL] | HIV-2 reactivation levels ([2]; costimulation: dactinomycin pretreatment plus sub-optimal HRF) | priming effects with low concentrations of TNF-α or PMA as reactivating agents [3] | priming effect for reactivation by TNF-α ([3]; CA5 cells, same sense integration, 4 ng/ml, 18 hours pretreatment) | concentrations acting as inhibitor of HIV-1 expression and reactivation ([3]; observed at the onset of drug toxicities) [ng/mL] | concentrations at which a priming effect was observed ([3]; pretreatment, then sub-optimal HRF or TNF-α) [ng/mL] | HIV-1 reactivation over background ([1]; sub-optimal HRF concentration by itself) [%] | NF-κB p65 activation amplitude compared to PMA stimulation (NF-κB p65) [fold] | cytotoxicity in cell culture (cell culture) | therapeutic index (cell culture; LD50/ED50) | HIV-2 reactivation (cells) ([2]; sub-optimal dose of HRF by itself) [%] | efficiency of HIV-1 reactivation ([3]; compared with Salmonella typhimurium flagellin) | potency of activating latent HIV-1 provirus ([3]; compared with TNFα or PMA) | NF-κB p50 activation amplitude compared to PMA stimulation (NF-κB p50; Jurkat cells) [fold] | duration of induced NF-κB activity in comparison to PMA (NF-κB p50; parental Jurkat T cells)
1 | Cc1c2oc3c(C)ccc(C(=O)N[C@@H]4C(=O)N[C@H](C(C)C)C(=O)N5CCC[C@H]5C(=O)N(C)CC(=O)N(C)[C@@H](C(C)C)C(=O)O[C@@H]4C)c3nc-2c(C(=O)N[C@@H]2C(=O)N[C@H](C(C)C)C(=O)N3CCC[C@H]3C(=O)N(C)CC(=O)N(C)[C@@H](C(C)C)C(=O)O[C@@H]2C)c(N)c1=O [dactinomycin] (I: T[dV]P[Sar][NMeV] / II: T[dV]P[Sar][NMeV]; ester I:1-I:C, II:1-II:C; linker I:N-II:N via Actinocin(9to1)) | strong priming effect | about 4 ng/ml and ~3.18 nM | 2 to 8 | up to 90% | Priming effects of dactinomycin were also observed | exerted its priming effect in each integration scenario | ≥ 10 | ≥ 0.5 |  |  |  |  |  |  |  |  | 
2 | HRF: flagellin polypeptide from Massilia timonae (SEQ ID NO:10), used as bacterial culture supernatant (protein) MASVINTNVPSLNSQRNLSTSQAQLNTSIQRLSSGMRINSAKDDAAGLAISDRMNSQIKGMTQATRNANDGVSMAQTAEGALSSSGDILQRIRELAVQSSNSSNSASDRKALQTEVTQLSSELNRIANTTEFNGQKLMDGTLGTANFQVGANAGQLISMTGANFNTSVYGNNQIAGDAAKAAATTSAAATGAFTISGYLGTSAAINTTDADTAKTIAASINNVTGDTGVTATARTDSFLKSAGGAHTMSLASDNSGTGEAVDISFTVGDGGDTADDYAAAISAFNAQTAKTGVTAEYDAVEKGLKLTNSAGENISLTNKAGSADIDMDTYAADGALMASALTLEAGDVGVANGRVTMDSEKSFSVAEGTDTGFELADSSALKSVAKIDISDFEGAQEAIKVADAALSAVNSQRAEYGALQSRFESAISNLSSSTENLSASRSRIVDTDFAAETAKMTRGQILQQAGTSMLAQANSLPNGVLSLLRG |  |  |  |  |  |  |  |  | 15 | ~3 | far less cytotoxic | > 300 | 10 | same efficiency as Salmonella typhimurium flagellin | potency comparable to that of TNFα or PMA | ~3 | less sustained
